# Data as given in article PMC3078058 (Nature, 2011).
# B1: CusA inner membrane RND efflux pump (natural protein, Escherichia coli, UniProt P38054 1-1047, looked up)
# chain: MIEWIIRRSVANRFLVLMGALFLSIWGTWTIINTPVDALPDLSDVQVIIKTSYPGQAPQIVENQVTYPLTTTMLSVPGAKTVRGFSQFGDSYVYVIFEDGTDPYWARSRVLEYLNQVQGKLPAGVSAELGPDATGVGWIYEYALVDRSGKHDLADLRSLQDWFLKYELKTIPDVAEVASVGGVVKEYQVVIDPQRLAQYGISLAEVKSALDASNQEAGGSSIELAEAEYMVRASGYLQTLDDFNHIVLKASENGVPVYLRDVAKVQIGPEMRRGIAELNGEGEVAGGVVILRSGKNAREVIAAVKDKLETLKSSLPEGVEIVTTYDRSQLIDRAIDNLSGKLLEEFIVVAVVCALFLWHVRSALVAIISLPLGLCIAFIVMHFQGLNANIMSLGGIAIAVGAMVDAAIVMIENAHKRLEEWQHQHPDATLDNKTRWQVITDASVEVGPALFISLLIITLSFIPIFTLEGQEGRLFGPLAFTKTYAMAGAALLAIVVIPILMGYWIRGKIPPESSNPLNRFLIRVYHPLLLKVLHWPKTTLLVAALSVLTVLWPLNKVGGEFLPQINEGDLLYMPSTLPGISAAEAASMLQKTDKLIMSVPEVARVFGKTGKAETATDSAPLEMVETTIQLKPQEQWRPGMTMDKIIEELDNTVRLPGLANLWVPPIRNRIDMLSTGIKSPIGIKVSGTVLADIDAMAEQIEEVARTVPGVASALAERLEGGRYINVEINREKAARYGMTVADVQLFVTSAVGGAMVGETVEGIARYPINLRYPQSWRDSPQALRQLPILTPMKQQITLADVADIKVSTGPSMLKTENARPTSWIYIDARDRDMVSVVHDLQKAIAEKVQLKPGTSVAFSGQFELLERANHKLKLMVPMTLMIIFVLLYLAFRRVGEALLIISSVPFALVGGIWLLWWMGFHLSVATGTGFIALAGVAAEFGVVMLMYLRHAIEAVPSLNNPQTFSEQKLDEALYHGAVLRVRPKAMTVAVIIAGLLPILWGTGAGSEVMSRIAAPMIGGMITAPLLSLFIIPAAYKLMWLHRHRVRK
# B2: CusB membrane fusion protein (natural protein, Escherichia coli, UniProt P77239 29-407, looked up)
# chain: EPPAEKTSTAERKILFWYDPMYPNTRFDKPGKSPFMDMDLVPKYADEESSASGVRIDPTQTQNLGVKTATVTRGPLTFAQSFPANVSYNEYQYAIVQARAAGFIDKVYPLTVGDKVQKGTPLLDLTIPDWVEAQSEYLLLRETGGTATQTEGILERLRLAGMPEADIRRLIATQKIQTRFTLKAPIDGVITAFDLRAGMNIAKDNVVAKIQGMDPVWVTAAIPESIAWLVKDASQFTLTVPARPDKTLTIRKWTLLPGVDAATRTLQLRLEVDNADEALKPGMNAWLQLNTASEPMLLIPSQALIDTGSEQRVITVDADGRFVPKRVAVFQASQGVTALRSGLAEGEKVVSSGLFLIDSEANISGALERMRSESATHAH
# Columns and labels:
# crystal structure = molecular target: the molecule itself; assay: crystal structure
# [1] = molecular target: B1; assay: ITC
Binder,stoichiometry N (crystal structure),Kd [1] [µM]
B1,3,–
B2,6,5.1 ± 0.3
